Data from the Immune Epitope Database (IEDB).

How the values were obtained:
HLA-B*15:42 = test: IEDB peptide-MHC binding, purified MHC/competitive/fluorescence; filed as Kd, often an IC50 or EC50 that approximates it; ≥ and ≤ were set here for values at or beyond the usual limits of such assays; details: source organism: Mycobacterium tuberculosis C
HLA-B*45:06 = test: as above; details: source organism: Mycobacterium tuberculosis C
HLA-B*83:01 = test: as above; details: source organism: Mycobacterium tuberculosis C
HLA-B*15:01 [1] = test: as above
HLA-B*57:01 [2] = test: IEDB peptide-MHC binding, purified MHC/direct/fluorescence; filed as Kd, often an IC50 or EC50 that approximates it; ≥ and ≤ were set here for values at or beyond the usual limits of such assays
HLA-B*46:01 [3] = test: as above
HLA-B*38:01 = test: as above; details: source organism: Mycobacterium tuberculosis str. Haarlem
HLA-A*11:01 [4] = test: as above
HLA-A*26:01 [5] = test: as above
HLA-A*01:01 [6] = test: as above; details: source organism: Mycobacterium tuberculosis
HLA-B*48:01 = test: as above
HLA-A*03:01 [7] = test: as above
HLA-A*02:01 [8] = test: as above; details: source organism: Mycobacterium tuberculosis
HLA-A*69:01 [9] = test: as above
HLA-B*15:09 = test: as above; details: source organism: Mycobacterium tuberculosis str. Haarlem
HLA-B*40:01 = test: as above
HLA-B*18:01 = test: as above; details: source organism: Mycobacterium tuberculosis
HLA-B*27:05 = test: as above
HLA-B*08:01 [10] = test: as above; details: source organism: Mycobacterium tuberculosis str. Haarlem
HLA-B*15:17 = test: as above
HLA-B*08:02 = test: as above; details: source organism: Mycobacterium tuberculosis str. Haarlem
HLA-B*58:01 = test: as above
HLA-B*51:01 = test: as above; details: source organism: Mycobacterium tuberculosis
HLA-A*31:01 = test: as above
HLA-A*11:01 [11] = test: IEDB peptide-MHC binding, purified MHC/competitive/fluorescence; ≥ and ≤ were set here for values at or beyond the usual limits of such assays; details: source organism: Zaire ebolavirus
HLA-A*01:01 [12] = test: as above; details: source organism: Zaire ebolavirus
HLA-A*03:01 [13] = test: as above; details: source organism: Zaire ebolavirus
HLA-A*02:01 [14] = test: as above; details: source organism: Zaire ebolavirus
HLA-B*07:02 = test: as above; details: source organism: Zaire ebolavirus
HLA-B*15:01 [15] = test: as above; details: source organism: Zaire ebolavirus
HLA-A*24:02 = test: as above; details: source organism: Zaire ebolavirus
HLA-B*57:01 [16] = test: IEDB peptide-MHC binding, purified MHC/competitive/fluorescence; filed as Kd, often an IC50 or EC50 that approximates it; ≥ and ≤ were set here for values at or beyond the usual limits of such assays; details: source organism: Zaire ebolavirus
HLA-B*39:01 = test: as above
HLA-B*46:01 [17] = test: as above; details: source organism: Zaire ebolavirus
HLA-A*26:01 [18] = test: as above; details: source organism: Zaire ebolavirus
HLA-B*35:01 = test: as above; details: source organism: Zaire ebolavirus
HLA-B*27:03 = test: as above; details: source organism: Zaire ebolavirus
HLA-A*02:01 [19] = test: as above
HLA-A*69:01 [20] = test: as above; details: source organism: Zaire ebolavirus
HLA-A*23:01 = test: IEDB peptide-MHC binding, purified MHC/direct/fluorescence; filed as Kd, often an IC50 or EC50 that approximates it; ≥ and ≤ were set here for values at or beyond the usual limits of such assays; details: source organism: Zaire ebolavirus
HLA-A*02:12 = test: as above; details: source organism: Zaire ebolavirus
HLA-A*02:19 = test: as above; details: source organism: Zaire ebolavirus
HLA-A*02:16 = test: as above; details: source organism: Zaire ebolavirus
HLA-A*02:03 = test: as above; details: source organism: Zaire ebolavirus
HLA-A*24:03 = test: as above; details: source organism: Zaire ebolavirus
HLA-A*01:01 [21] = test: IEDB peptide-MHC binding, purified MHC/competitive/fluorescence; filed as Kd, often an IC50 or EC50 that approximates it; ≥ and ≤ were set here for values at or beyond the usual limits of such assays; details: source organism: Coxiella burnetii RSA 493
HLA-B*08:01 [22] = test: as above; details: source organism: Coxiella burnetii RSA 493
HLA-A*30:01 = test: as above; details: source organism: Coxiella burnetii RSA 493
HLA-A*26:03 = test: IEDB peptide-MHC binding, purified MHC/direct/fluorescence; filed as Kd, often an IC50 or EC50 that approximates it; ≥ and ≤ were set here for values at or beyond the usual limits of such assays; details: source organism: Coxiella burnetii Q321
HLA-A*26:02 = test: as above; details: source organism: Coxiella burnetii Q321
[23] = source organism: Mycobacterium tuberculosis
[24] = source organism: Zaire ebolavirus
[25] = source organism: Coxiella burnetii RSA 493
[26] = source organism: Coxiella burnetii

Work on RPAGARAAF yielded a Kd (HLA-B*15:42) of at least 5 µM, a Kd (HLA-B*45:06) of at least 5 µM and a Kd (HLA-B*83:01) of 0.245 µM. The Kd (HLA-B*15:01 [1]; source organism: Mycobacterium tuberculosis C) was at least 20 µM, the Kd (HLA-B*57:01 [2]; [23]) was at least 20 µM and the Kd (HLA-B*46:01 [3]; [23]) was at least 20 µM. For the same sequence, the Kd (HLA-B*38:01) was at least 20 µM, the Kd (HLA-A*11:01 [4]; [23]) was at least 20 µM and the Kd (HLA-A*26:01 [5]; source organism: Mycobacterium tuberculosis str. Haarlem) was at least 20 µM. For the same sequence, the Kd (HLA-A*01:01 [6]) was at least 20 µM, the Kd (HLA-B*48:01; [23]) was at least 20 µM and the Kd (HLA-A*03:01 [7]; [23]) was at least 20 µM. For the same sequence, the Kd (HLA-A*02:01 [8]) was at least 20 µM, the Kd (HLA-A*69:01 [9]; [23]) was at least 20 µM and the Kd (HLA-B*15:09) was at least 20 µM. For the same sequence, the Kd (HLA-B*40:01; [23]) was at least 20 µM, the Kd (HLA-B*18:01) was 11.8 µM and the Kd (HLA-B*27:05; [23]) was at least 20 µM. For the same sequence, the Kd (HLA-B*08:01 [10]) was 6.85 µM, the Kd (HLA-B*15:17; [23]) was at least 20 µM and the Kd (HLA-B*08:02) was at least 20 µM. For the same sequence, the Kd (HLA-B*58:01; [23]) was at least 20 µM, the Kd (HLA-B*51:01) was at least 20 µM and the Kd (HLA-A*31:01; [23]) was at least 20 µM.
For TVAPPAPVY, the IC50 (HLA-A*11:01 [11]) was 0.276 µM, the IC50 (HLA-A*01:01 [12]) was 18.2 µM and the IC50 (HLA-A*03:01 [13]) was 6.32 µM. The IC50 (HLA-A*02:01 [14]) was at least 119 µM, the IC50 (HLA-B*07:02) was at least 138 µM and the IC50 (HLA-B*15:01 [15]) was 8.09 µM. It also gave an IC50 (HLA-A*24:02) of 5.17 µM, a Kd (HLA-B*57:01 [16]) of at least 20 µM and a Kd (HLA-B*39:01; [24]) of at least 20 µM. It also gave a Kd (HLA-B*46:01 [17]) of at least 20 µM, a Kd (HLA-A*26:01 [18]) of at least 20 µM and a Kd (HLA-B*35:01) of 0.0002 µM. For the same sequence, the Kd (HLA-B*27:03) was at least 20 µM, the Kd (HLA-A*02:01 [19]; [24]) was at least 20 µM and the Kd (HLA-A*69:01 [20]) was at least 20 µM. It also gave a Kd (HLA-A*23:01) of at least 20 µM, a Kd (HLA-A*02:12) of at least 20 µM and a Kd (HLA-A*02:19) of at least 20 µM. The Kd (HLA-A*02:16) was at least 20 µM, the Kd (HLA-A*02:03) was at least 20 µM and the Kd (HLA-A*24:03) was at least 20 µM. It also gave a Kd (HLA-B*58:01; [24]) of 1.1 µM.
EIYRTLYGL showed a Kd (HLA-B*39:01; [25]) of 2.74 µM, a Kd (HLA-A*01:01 [21]) of 4.29 µM and a Kd (HLA-A*02:01 [19]; [25]) of at least 20 µM. The Kd (HLA-B*08:01 [22]) was 7 µM, the Kd (HLA-A*30:01) was 2.47 µM and the Kd (HLA-B*15:01 [1]; [25]) was at least 20 µM. The Kd (HLA-B*57:01 [2]; [26]) was at least 20 µM, the Kd (HLA-B*46:01 [3]; [26]) was at least 20 µM and the Kd (HLA-A*11:01 [4]; [26]) was at least 20 µM. The Kd (HLA-A*26:01 [5]; source organism: Coxiella burnetii Q321) was 0.067 µM, the Kd (HLA-B*48:01; [26]) was at least 20 µM and the Kd (HLA-A*26:03) was 0.182 µM. The Kd (HLA-A*03:01 [7]; [26]) was at least 20 µM, the Kd (HLA-A*26:02) was 0.006 µM and the Kd (HLA-A*69:01 [9]; [26]) was 0.0014 µM. It also gave a Kd (HLA-B*40:01; [26]) of at least 20 µM, a Kd (HLA-B*27:05; [26]) of at least 20 µM and a Kd (HLA-B*15:17; [26]) of 0.384 µM. For the same sequence, the Kd (HLA-B*58:01; [26]) was at least 20 µM and the Kd (HLA-A*31:01; [26]) was at least 20 µM.
